Eleven molecules from US20240349732A1 (IMPETUS AGRICULTURE, published 2024) can be followed below.

B1: NAAT monospecific nanobody #10 (VHH)
VHH: QVQLQESGGGLVQAGGSLTLSCAFSGRTFTHYAMAWFRQAPGKERKFVAGVTRSGPNTYYDDSVQGRFTISRDNAKNTVYLHMNSLKPEDTAVYYCAANSGVVSGYDYWGQGTQVTVSS
notes: Llama VHH; also called NAAT10
B2: NAAT monospecific nanobody #29 (VHH)
VHH: QVQLQESGGGVVQTGGSLTLSCKASRRTSGFAMAWFRQAPGMEREFVAGIGRTGDNIHYLDSVKGRFTISRDNTKNTLSLQMNNLKPEDTAVYYCLRTMGGTWSEKGQGTQVTVSS
notes: Llama VHH; also called NAAT29
B3: NAAT monospecific nanobody #6 (VHH)
VHH: QVQLQESGGGVVQTGGSLTLSCKASRRTSGFAMAWFRQAPGMEREFVAGIGRTGDNIHYLDSVKGRFTISRDNTKNTLSLQMNSLKSEDTAVYYCAKVVVVAGSPSFDAWGQGTQVTVSS
notes: Llama VHH; also called NAAT6
B4: NAAT monospecific nanobody #1 (VHH)
VHH: QVQLQESGGGLVQAGGSLRLSCAASGRTFSRYAMGWFRQALGKEREFVAGINWSGSMTYYADSVKGRFTISRDNAKNMLYLQMNSLKSEDTAVYYCAGVTVVGGAPAFDYWGQGTQVTVSS
notes: Llama VHH; also called NAAT1
B5: NAAT monospecific nanobody #2 (VHH)
VHH: QVQLQESGGGVVQTGGSLTLSCKASRRTSGFAMAWFRQAPGMEREFVAGIGRTGDNIHYLDSVKGRFTISRDNTKNTLSLQMNSLRPGDTAVYYCAADVTKSGFIYWGQGTQVTVSS
notes: Llama VHH; also called NAAT2
B6: NAAT monospecific nanobody #5 (VHH)
VHH: QVQLQESGGGLVQPGGSLRLACVLSGGPSSSYGVGWFRQRSGTEREFVAAISGSGRTIHYVDDVKGRFAISRDSAKNAVDLQMNNLKPEDTAVYYCAALALVTTHPTSNVGEWDYWGQGTQVTVSS
notes: Llama VHH; also called NAAT5
B7: Cadherin monospecific nanobody #46 (VHH)
VHH: QVQLQESGGGSVQAGGSLKLSCAASGTESIFIVMGWYRQAPGKERELVAAMSFGGGTNVTDGVRGRFTISRDFDKNTVDLQMNNLKTEDTAVYYCNAVQWGPRDYWGQGTQVTVSS
notes: Llama VHH; also called Cad46
B8: Cadherin monospecific nanobody #2 (VHH)
VHH: QVQLQESGGGLVQAGASLRLSCAASRRTGSSLTMGWFRQAPGKEREFVAAISRSGIRTYYADFVKGRFTISRDNAKNTLYLQMNSLKPEDTAVYYCAANDKTYGSGLDVYTRRQNYYYWGPGTQVTVSS
notes: Llama VHH; also called Cad2
B9: Cadherin monospecific nanobody #48 (VHH)
VHH: QVQLQESGGGLVQAGASLRLSCAASRRTGSSLTMGWFRQAPGREREFVAAISRSGIRTYYADFVKGRFTISRDNAKNTLYLQMNSLKPEDTAVYYCAANDKTYGSGLDVYTRRQDYYYWGPGTQVTVSS
notes: Llama VHH; also called Cad48
B10: Cadherin monospecific nanobody #43 (VHH)
VHH: QVQLQESGGGLAQAGASLRLSCAASRRTGSSLTMGWFRQAPGKEREFVAAISRSGIRTYYADFVKGRFTISRDNAKNTLYLQMNSLKPEDTAVYYCAANDKTYGSGLDVYTRRQDYYYWGPGTQVTVSS
notes: Llama VHH; also called Cad43
B11: Cadherin monospecific nanobody #50 (VHH)
VHH: QVQLQESGGGLVQAGASLRLSCAASRRTGSSLTMGWFRQAPGKEREFVAAISRSGIRTYYADFVKGRFTISRDNGENTLYLQINSLKPEDTAVYYCAASSNPGYYRTAPNQYNFWGPGTQVTVSS
notes: Llama VHH; also called Cad50

The target of one assay is T1, 57NAAT1like (second extracellular loop of Spodoptera frugiperda sodium-dependent nutrient amino acid … (Spodoptera frugiperda)).
T1 construct: 57 aa antigen; also called NAAT antigen
T1 chain: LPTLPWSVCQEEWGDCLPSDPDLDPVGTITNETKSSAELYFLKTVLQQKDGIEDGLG
Nature of the assay: ELISA of periplasmic extracts on passively coated non-biotinylated 57NAAT1like.
For the molecule B1, the binding result was “binds”.
Regarding B2, the binding result is reported as “binds”.
Take B3: the binding result is reported as “binds”.
As for B4, the binding result is “binds”.
B5: the binding result was “binds”.
Same read-out and setting: next, B6: “binds”.

A further assay has as its target T2, tagless FAW Cadherin antigen (Spodoptera frugiperda).
T2 construct: the batch used for panning is called tagless; also called Sp.f Cadherin
T2 chain: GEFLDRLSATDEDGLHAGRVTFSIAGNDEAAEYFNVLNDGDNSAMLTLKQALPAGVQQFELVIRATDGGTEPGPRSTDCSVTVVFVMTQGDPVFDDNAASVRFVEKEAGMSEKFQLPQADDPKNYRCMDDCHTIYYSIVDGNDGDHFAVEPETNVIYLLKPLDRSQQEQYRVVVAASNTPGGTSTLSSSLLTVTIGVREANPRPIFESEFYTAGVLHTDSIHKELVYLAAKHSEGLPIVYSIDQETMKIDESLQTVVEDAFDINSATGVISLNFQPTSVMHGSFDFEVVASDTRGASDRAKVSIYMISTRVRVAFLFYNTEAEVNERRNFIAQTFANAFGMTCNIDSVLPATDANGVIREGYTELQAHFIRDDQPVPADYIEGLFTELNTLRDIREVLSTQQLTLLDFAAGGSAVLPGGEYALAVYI
Nature of the assay: screen of colonies after 3 rounds of phage panning on solid-phase coated tagless FAW Cadherin antigen.
B7: the binding result is “binds”.
B8: the binding result is given as “binds”.
The same measure, in the same setting: as for B9, the entry is “binds”; as for B10, “binds”; as for B11, “binds”.
